Laboratory results from the supplement of paper PMC11246515.
± gives the standard deviation of the averaged measurements.

Assay: total protein half-life in vivo (active degradation + dilution); higher = more stable protein
[1] = E. coli NCM3722 delta-clpP delta-lon delta-hslV, growth: N-lim chemostat, doubling time 6 h
[2] = E. coli NCM3722 delta-clpP, growth: N-lim chemostat, doubling time 6 h
[3] = wild type E. coli NCM3722, growth: C-lim chemostat, doubling time 3 h
[4] = wild type E. coli NCM3722, growth: C-lim chemostat, doubling time 6 h
[5] = wild type E. coli NCM3722, growth: C-lim chemostat, doubling time 12 h
[6] = E. coli NCM3722 delta-hslV, growth: N-lim chemostat, doubling time 6 h
[7] = E. coli NCM3722 delta-lon, growth: N-lim chemostat, doubling time 6 h
[8] = E. coli NCM3722 delta-smpB, growth: N-lim chemostat, doubling time 6 h
[9] = wild type E. coli NCM3722, growth: N-lim chemostat, doubling time 6 h
[10] = wild type E. coli NCM3722, growth: N-lim chemostat, doubling time 12 h
[11] = wild type E. coli NCM3722, growth: P-lim chemostat, doubling time 6 h
[12] = wild type E. coli NCM3722, growth: P-lim chemostat, doubling time 12 h

Sequence	total protein half-life in vivo [1]	total protein half-life in vivo [2]	total protein half-life in vivo [3]	total protein half-life in vivo [4]	total protein half-life in vivo [5]	total protein half-life in vivo [6]	total protein half-life in vivo [7]	total protein half-life in vivo [8]	total protein half-life in vivo [9]	total protein half-life in vivo [10]	total protein half-life in vivo [11]	total protein half-life in vivo [12]
MISSLWIAKTGLDAQQTNMDVIANNLANVSTNGFKRQRAVFEDLLYQTIRQPGAQSSEQTTLPSGLQIGTGVRPVATERLHSQGNLSQTNNSKDVAIKGQGFFQVMLPDGSSAYTRDGSFQVDQNGQLVTAGGFQVQPAITIPANALSITIGRDGVVSVTQQGQAAPVQVGQLNLTTFMNDTGLESIGENLYTETQSSGAPNESTPGLNGAGLLYQGYVETSNVNVAEELVNMIQVQRAYEINSKAVSTTDQMLQKLTQL [P0ABX5]	4.91 ± 2.6 h	> 8 h	1.53 ± 0.27 h	5.1 ± 3.6 h	6.45 ± 1.9 h							
MAQEIELKFIVNHSAVEALRDHLNTLGGEHHDPVQLLNIYYETPDNWLRGHDMGLRIRGENGRYEMTMKVAGRVTGGLHQRPEYNVALSEPTLDLAQLPTEVWPNGELPADLASRVQPLFSTDFYREKWLVAVDGSQIEIALDQGEVKAGEFAEPICELELELLSGDTRAVLKLANQLVSQTGLRQGSLSKAARGYHLAQGNPAREIKPTTILHVAAKADVEQGLEAALELALAQWQYHEELWVRGNDAAKEQVLAAISLVRHTLMLFGGIVPRKASTHLRDLLTQCEATIASAVSAVTAVYSTETAMAKLALTEWLVSKAWQPFLDAKAQGKISDSFKRFADIHLSRHAAELKSVFCQPLGDRYRDQLPRLTRDIDSILLLAGYYDPVVAQAWLENWQGLHHAIATGQRIEIEHFRNEANNQEPFWLHSGKR	5.73 ± 0.11 h	5.48 ± 0.56 h	3.09 ± 0.13 h	6.25 ± 0.19 h	10.7 ± 1.1 h	5.22 ± 0.088 h	4.91 ± 1.1 h	4.78 ± 0.12 h	5.37 ± 0.26 h	8.65 ± 0.74 h	6.02 ± 0.58 h	11.6 ± 1.1 h
MELKDYYAIMGVKPTDDLKTIKTAYRRLARKYHPDVSKEPDAEARFKEVAEAWEVLSDEQRRAEYDQMWQHRNDPQFNRQFHHGDGQSFNAEDFDDIFSSIFGQHARQSRQRPATRGHDIEIEVAVFLEETLTEHKRTISYNLPVYNAFGMIEQEIPKTLNVKIPAGVGNGQRIRLKGQGTPGENGGPNGDLWLVIHIAPHPLFDIVGQDLEIVVPVSPWEAALGAKVTVPTLKESILLTIPPGSQAGQRLRVKGKGLVSKKQTGDLYAVLKIVMPPKPDENTAALWQQLADAQSSFDPRKDWGKA	6.73 ± 1.4 h	5.61 ± 0.13 h	3.32 ± 0.26 h	5.86 ± 1.2 h		5.26 ± 0.1 h	6.28 ± 0.45 h	4.99 ± 0.26 h	4.87 ± 0.37 h	9.91 ± 2.2 h	5.76 ± 0.35 h	12.8 ± 0.6 h
MKQQIQLRRREVDETADLPAELPPLLRRLYASRGVRSAQELERSVKGMLPWQQLSGVEKAVEILYNAFREGTRIIVVGDFDADGATSTALSVLAMRSLGCSNIDYLVPNRFEDGYGLSPEVVDQAHARGAQLIVTVDNGISSHAGVEHARSLGIPVIVTDHHLPGDTLPAAEAIINPNLRDCNFPSKSLAGVGVAFYLMLALRTFLRDQGWFDERNIAIPNLAELLDLVALGTVADVVPLDANNRILTWQGMSRIRAGKCRPGIKALLEVANRDAQKLAASDLGFALGPRLNAAGRLDDMSVGVALLLCDNIGEARVLANELDALNQTRKEIEQGMQIEALTLCEKLERSRDTLPGGLAMYHPEWHQGVVGILASRIKERFHRPVIAFAPAGDGTLKGSGRSIQGLHMRDALERLDTLYPGMMLKFGGHAMAAGLSLEEDKFKLFQQRFGELVTEWLDPSLLQGEVVSDGPLSPAEMTMEVAQLLRDAGPWGQMFPEPLFDGHFRLLQQRLVGERHLKVMVEPVGGGPLLDGIAFNVDTALWPDNGVREVQLAYKLDINEFRGNRSLQIIIDNIWPI	4.22 ± 0.25 h	3.87 ± 1.1 h	2.11 ± 0.042 h	3.66 ± 0.65 h	4.42 ± 0.24 h	2.23 ± 0.075 h	2.74 ± 0.093 h	2.07 ± 0.028 h	2.25 ± 0.044 h	3.5 ± 0.59 h	2.33 ± 0.37 h	3.89 ± 0.38 h
MINDIKWVQAQRKATDWRQAVEIATRPLVAYGAAQPCYVNGIIENTLNWGPYYLIAPGIALPHARPEQGANYNQVSITTLRTPVAFGNEECDPVWLLLCVSATDANAHILTIQRISQFIDSPQRLTAVGNASTDDALFALVSG	4.94 h	4.17 ± 0.58 h		4.65 ± 0.36 h	6.74 ± 0.098 h	4.11 h	4.24 ± 0.33 h	4.08 ± 0.47 h	4.66 h	8.43 ± 2.6 h	6.04 h	
MSTRLTTLSHTSEGHRVSVHYGYDDKGRLTGERQTVENPETGELLWHHETGHAYNEQGLANRVTPDSLPPVEWLTYGSGYLAGMKLGGTPLLEFTRDRLHRETVRSFGSMAGSNAAYKLTSTYTPAGQLQSQHLNSLVYDRDYGWNDNGDLVRISGPRQTREYGYSATGRLESVRTLAPDLDIRIPYATDPAGNRLPDPELHPDSTLTVWPDNRIAEDAHYVYRHDEYGRLTEKTDRIPAGVIRTDDERTHHYHYDSQHRLVFYTRIQHGEPLVESRYLYDPLGRRMAKRVWRRERDLTGWMSLSRKPEVTWYGWDGDRLTTVQTDTTRIQTVYEPGSFTPLIRVETENGEREKAQRRSLAETLQQEGSENGHGVVFPAELVRLLDRLEEEIRADRVSSESRAWLAQCGLTVEQLARQVEPEYTPARKVHFYHCDHRGLPLALISEDGNTAWRGEYDEWGNQLNEENPHHLHQPYRLPGQQHDEESGLYYNRHRHYDPLQGRYITPDPIGLRGGWNMYQYPLNPIQVIDPMGLDAIENMTSGGLIYAVSGVPGLIAANSITNSAYQFGYDMDAIVGGAHNGAADAMRHCYLMCRMTKTFGSTIADVIGKNHEAAGDRQGQPAKERIMDLKNNTVGIACGDFSAKCSDACIEKYNTGQLFGLDGIKADNPIKAKQGSSDASNY	3.27 h											
MRFVDEYRAPEQVMQLIEHLRERASHLSYTAERPLRIMEVCGGHTHAIFKFGLDQLLPENVEFIHGPGCPVCVLPMGRIDTCVEIASHPEVIFCTFGDAMRVPGKQGSLLQAKARGADVRIVYSPMDALKLAQENPTRKVVFFGLGFETTMPTTAITLQQAKARDVQNFYFFCQHITLIPTLRSLLEQPDNGIDAFLAPGHVSMVIGTDAYNFIASDFHRPLVVAGFEPLDLLQGVVMLVQQKIAAHSKVENQYRRVVPDAGNLLAQQAIADVFCVNGDSEWRGLGVIESSGVHLTPDYQRFDAEAHFRPAPQQVCDDPRARCGEVLTGKCKPHQCPLFGNTCNPQTAFGALMVSSEGACAAWYQYRQQESEA	5.73 h	3.17 ± 0.086 h	2.32 ± 0.034 h	3.94 ± 0.33 h	5.53 ± 0.43 h	2.4 h	2.92 ± 0.14 h		2.2 h	2.79 h	3.08 h	5.78 h
